From the RNAGym collection of RNA variant scans (doi:10.1073/pnas.2313332121)
This sample holds only a part of the variants without activity.

B1: TPR 5TU (parent)
chain: GGAUCUUCUCGAUCUAACAAAAAAGACAAAUCUGCCACAAAGCUUGAGAGCAUCUUCGGAUGCAGAGGCGGCAGCCUUCGGUGGCGCGAUAGCGCCAACGUUCUCAACUAUGACACGCAAAACGCGUGCUCCGUUGAAUGGAGUUUAUCAUG

Variants of: B1
Assay: polymerase ribozyme fitness, log enrichment relative to wild type (log ratio); higher = more active; in vitro selection for triplet polymerase activity
Method in brief: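 Each subunit of a heterodimeric triplet polymerase ribozyme was mutagenized into a library by PCR, transcribed, and subjected to one round of in vitro selection, run in triplicate. Libraries were annealed with a biotinylated primer, the partner subunit and triplets, incubated frozen at −7 °C, and extended constructs were gel-excised, captured on streptavidin beads and recovered by RT-PCR. Input and output libraries were sequenced on Illumina, keeping genotypes with ≥10 input reads and ≥1 read per output. Fitness is log base 2 of genotype enrichment divided by wild-type enrichment, from inverse-variance-weighted replicate averages.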

Variant	polymerase ribozyme fitness (log ratio)
A24U U45G G86A	-2.58
A24U U56A G62C	-1.06
A24C G67A G92U	≤ -4.2
A22U A89U	0.229
A22G A24G G92U	≤ -4.2
A23U C27G A37U C95G A110G G140C	-3.86
A22G C54U	0.651
A22G C38U C95U A107C G128A	≤ -4.2
A22U A52G C75U G83U U134C A142C	-3.51
A23G C87U U127C	-3.81
A22U A41C G70C U82G	≤ -4.2
A24U U45A	-3
A23G A49U A60G A119U A120U A122C	-3.98
A23U A29U	-3.88
A23U G42U G58U C75U U148G	≤ -4.2
A22C U102G A110G	≤ -4.2
A24G A91U	≤ -4.2
A22U A40C G65A	-3.81
A24U G88C C95G C123G	≤ -4.2
A22G C57U G70A A91C	≤ -4.2
G25A	-1.62
G25C	-2.52
A23G A40C G141C	-3.82
A23C U45C A52C U55A C75G C76U C93A A119G G143U	-4.17

Variant	polymerase ribozyme fitness (log ratio)
A23U A29U C85A A115G G143C	≤ -4.2
A24U U77A G92A C125G	≤ -4.2
A24G G92A A121U A147G	≤ -4.2
A24G G92U A122G	≤ -4.2
A23U C85A	≤ -4.2
A22G U53C C54U U78C G117A	-1.92
A22G U53C U82G A98U	0.397
A22U A39U U44G C51A G141C U146C A150G	≤ -4.2
A22U A29G C35G U44G C57U C114A	≤ -4.2
A23U U33A U45A G46A C96U	-4.15
A23G U56A A97G A115G	-3.42
A22C U101G	0.0923
A22U A41C A52U G124U	-2.3
A23U A24C A30G A39G C116U	≤ -4.2
A22U C27G C57G U61A C95U U104G U145G	≤ -4.2
A24C G42A A52G U55A C76U C123G G126A	≤ -4.2
A22U G84U	-1.67
A24U G34C C79G C87U A137U	≤ -4.2
A22U G50U C96A G136C A142G	≤ -4.2
A24U A52G C79G G94A A107G	≤ -4.2
A22C U33A G50A A66U C93U G100C A138G C149A	≤ -4.2
A24U G92U	0.213
A24U G86C	-2.81
A23G A73U G81C	-4.17

Variant	polymerase ribozyme fitness (log ratio)
A22U A150C	-2.85
A23U A26U U33G A37C C72G C76A C95G U144C	≤ -4.2
A22U A24U U44A C93A C96U C118U	≤ -4.2
A24U G42C G50U C85G G136A G141A	≤ -4.2
A23G A26C G141A C149G	≤ -4.2
A23C A26U U53A C85A G136U	≤ -4.2
G25A U56A	-1.67
A24U G46C A60C U102G	≤ -4.2
A22G C32U A120G C125U	-3.24
A23U C108A G143C	≤ -4.2
A24C G34A C96G G117C U135G U139A U145A	≤ -4.2
A22U A52C G58C G84U C99A	≤ -4.2
A24U G59U C87U G128A G140U U151C	≤ -4.2
A24U G83U G136A U146C A150G	-3.59
A23C A39U G46U U90A C96A C99U C114G G141C	≤ -4.2
A24G G124U	-4.06
A22U A24G U31A U56G C79U U90G C95U A97C A120U C125G	≤ -4.2
A24U A28C A52G G71A C96G A137C	≤ -4.2
A22U C99G C116U	-0.689
A23U A119G A120U G152A	≤ -4.2
A23G U44A G88A	-4.1
A22G A28U A29G A37C G48A A64C C85G C99U C125A A137G	≤ -4.2
A22U G94A	-0.557
A23C U53A C93U U134G	≤ -4.2

Variant	polymerase ribozyme fitness (log ratio)
A22U G50C U53G G88C C93U C96U C108U	≤ -4.2
A24U G84U	-2.26
A24U C27U C36U G58C G83A G112U A121G G124C	≤ -4.2
A24U C32G U55G U78A U104G	≤ -4.2
A24C U33A C35G U53A U82C G92U G136A	≤ -4.2
A23C G133A U135C G141A A150C	≤ -4.2
A24C U53A G81C C95U G141A	≤ -4.2
A24C A40U G94A C116A	≤ -4.2
A23U A60G G81A G83U	≤ -4.2
A23G C54G U56A A142C	≤ -4.2
A22U A30U C95U U134A	≤ -4.2
A22G G58A C75A G86U C99A C103U G141C	≤ -4.2
A23C C108G A115G A138U U148C	≤ -4.2
A24U C57U C69G G84A C87A A115C	≤ -4.2
G25A C72U G80U C93A C114U	≤ -4.2
A24G A47G G48A C75U G86A	≤ -4.2
A24U C79U U102G C118U A119G G140A	≤ -4.2
A23U G50A C95U A137G	≤ -4.2
A23U U61A A107U A115G	≤ -4.2
A22U A39C U61A C72U C85G G141A	≤ -4.2
A23G U144G	-1.79
A23G U101A	-3.18
A24U C93U U104G	-1.84
A23G A52U C118A A122U	≤ -4.2

Variant	polymerase ribozyme fitness (log ratio)
A23G C85U	-2.38
A23C G34U C43U A60G C132U	-4.02
A23C C35A C36G C54A A137G U148G	≤ -4.2
A24U A121U G124U	-1.16
A23C U144C	-4.15
A23G C51G U53A A60G G84A U104G C116U A121C	≤ -4.2
A24U G50U G59A	0.438
A23U C57U	-3.64
A22U C63U	0.542
A24G C27G A28G C32A U55A U56A C76A C85A G92C U130G	≤ -4.2
A22U A29C A47G U134C U139A	≤ -4.2
A22C U53A G84C G112A C129A U134G A147C	≤ -4.2
A23C C51U G58A C75U C85G G143A U145G	≤ -4.2
A22G G92A C108G	≤ -4.2
A22U A24C A40U U55A C85A G117C G136U A138C	≤ -4.2
A23C G84U A106U G117U C118U C123U A142G	≤ -4.2
A24U C35U G42C C93U G136C A142G	-4.03
A22U A26C A47C C57A G62A G86A A89U A106U C108G	≤ -4.2
A24G G141C G143C	≤ -4.2
A22U C76U	0.515
A24U A28U A39C G59C A60U A66G G68C C79G G81A C116G C125U	≤ -4.2
A23G A26U G94C A110C	≤ -4.2
A23C A29G G81A G84U A122G G126A U135A	≤ -4.2
A23G G83A G94A C125U A147C	≤ -4.2

Variant	polymerase ribozyme fitness (log ratio)
A22C G84C G133U	≤ -4.2
A22U C38U C51U U53A C54A C85G	≤ -4.2
A22U G46A	0.387
A23G A52U	-3.51
A22U C125U	-0.442
A22U G86A G92U	-1.74
A23U A41G	-3.88
A22U C35A U55A U56G G74A C85G	≤ -4.2
A22G U44A C85A	≤ -4.2
A22C G62U A73U G88U C99U C118A U144C	≤ -4.2
A24U U33G U56A A91G C103A	≤ -4.2
A22U U82G C93A G124U C125U	-2.61
A22U A30G C85G U104A C105A U111G	≤ -4.2
A23U C96U U127C U144G A150G	≤ -4.2
G25A C51U G59C G88A U102G G136U	≤ -4.2
A22U C96U A121U U139A	-4.03
A24G C108U U148G	≤ -4.2
A22U C38A G59A C85U C95A	-0.962
G25A A28U A41U A66U G83U U111G C118U	≤ -4.2
A23U U55A U61C G67A C87U G126U G136C G140U	≤ -4.2
A23C G25C C27G U53A C54G A66G G80A A91G G92A C99U	≤ -4.2
A22U C96U C118U	-0.15
A22U C57U U78A C79U G84C G117C	≤ -4.2
A24C A73G G86U C99G C149G	≤ -4.2

Variant	polymerase ribozyme fitness (log ratio)
A24U A52C C87A	≤ -4.2
A22U A37U C95U U146A	-1.67
A22G C51G A91U G94U U144C	≤ -4.2
A24G C35U A89U G92C C125A	≤ -4.2
A23G G50C	-4
A23G G86A G100A	≤ -4.2
A23G C32G C57U G74A C93U U101G A137U	≤ -4.2
A24C G46A C116G	-4.14
A22C G48U A60G	0.164
A24C G67C C87U A122U A142G	≤ -4.2
A23U A29C C85G A110G G112U	≤ -4.2
A23U C57A G92C C149G	≤ -4.2
A24U C96U C129G	-3.47
A23U G42C G83A	≤ -4.2
A24C G58A G59A A147C	≤ -4.2
A24U C72U G84U C118U A142G	-3.98
A22U G46U C69A C93A C131A U148A	≤ -4.2
A22C G86U C131A	≤ -4.2
A22U G86U	-1.05
A23U C99U	-3.84
A23C C43U A47C C57G C87A A121G G143C U144G	≤ -4.2
A23C G58A G62A C87A C116G U135G	≤ -4.2
A22U C35U U55A G59A G65A C85U C105A	≤ -4.2
